Measurements reported in patent publication US20140221282A1, “LONG DURATION DUAL HORMONE CONJUGATES” (priority 2011, published 2014).
Ends that are not written are not given here. Y‑shaped mPEG40KD = Y-shaped methoxy-PEG of 40 kDa attached to the Lys side chain; mPEG40KD = methoxy-PEG of 40 kDa

These binders were tested against amylin receptor of rat nucleus accumbens membranes (rat) (assay: competition with 125I-rat amylin, rat nucleus accumbens membranes).
Chain of amylin receptor of rat nucleus accumbens membranes (rat) (P32214 other isoform, or with tags, fused parts or gaps, chain 1 of 2): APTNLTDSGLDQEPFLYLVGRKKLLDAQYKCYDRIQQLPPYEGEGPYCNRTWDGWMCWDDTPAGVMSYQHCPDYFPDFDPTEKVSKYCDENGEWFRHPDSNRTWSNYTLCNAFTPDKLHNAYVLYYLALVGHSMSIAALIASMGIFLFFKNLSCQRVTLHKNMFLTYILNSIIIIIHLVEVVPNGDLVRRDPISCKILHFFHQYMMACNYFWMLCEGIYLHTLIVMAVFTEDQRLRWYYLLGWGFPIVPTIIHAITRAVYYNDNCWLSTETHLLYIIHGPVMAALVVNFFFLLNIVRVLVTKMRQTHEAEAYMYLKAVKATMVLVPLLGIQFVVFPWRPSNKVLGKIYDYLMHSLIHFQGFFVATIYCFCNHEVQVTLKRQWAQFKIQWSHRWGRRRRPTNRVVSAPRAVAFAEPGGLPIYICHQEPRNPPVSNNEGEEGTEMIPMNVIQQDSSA
Chain of amylin receptor of rat nucleus accumbens membranes (rat) (Q9JJ74 27-148, chain 2 of 2, further chain): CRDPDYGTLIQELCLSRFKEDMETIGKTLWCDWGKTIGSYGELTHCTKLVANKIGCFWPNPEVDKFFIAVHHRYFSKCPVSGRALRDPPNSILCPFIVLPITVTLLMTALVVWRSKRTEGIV

Binder	IC50 [nM]
KCNTATCATQRLANFLVRSSNNLGPK(Y‑shaped mPEG40KD)LPPTNVGSNTY-NH2 (ends and bridges not checked) [[K^26(Y-shaped-mPEG40KD)]-Cmpd 53]	470
KCNTATCATQRLANFLVRSSNNLGPK(mPEG40KD)LPPTNVGSNTY-NH2 (ends and bridges not checked) [[K^26(mPEG40KD)]-Cmpd 53]	66

Continued by falling IC50, values first:

IC50 [nM]	Binder
78	mPEG40KD-CNTATCATQRLANFLVRSSNNLGPVLPPTNVGSNTY-NH2 (ends and bridges not checked) [mPEG40KD-Cmpd 50]
0.42	CNTATCATQRLANFLVRSSNNLGPVLPPTNVGSNTY-NH2 (ends and bridges not checked) [[des-Lys^1]-Cmpd 49]
